The target of assay [1] is T1, interleukin 27 receptor subunit alpha (human, UniProt Q6UWB1 33-636, limits assumed).
T1 construct: also called IL27RA
T1 sequence: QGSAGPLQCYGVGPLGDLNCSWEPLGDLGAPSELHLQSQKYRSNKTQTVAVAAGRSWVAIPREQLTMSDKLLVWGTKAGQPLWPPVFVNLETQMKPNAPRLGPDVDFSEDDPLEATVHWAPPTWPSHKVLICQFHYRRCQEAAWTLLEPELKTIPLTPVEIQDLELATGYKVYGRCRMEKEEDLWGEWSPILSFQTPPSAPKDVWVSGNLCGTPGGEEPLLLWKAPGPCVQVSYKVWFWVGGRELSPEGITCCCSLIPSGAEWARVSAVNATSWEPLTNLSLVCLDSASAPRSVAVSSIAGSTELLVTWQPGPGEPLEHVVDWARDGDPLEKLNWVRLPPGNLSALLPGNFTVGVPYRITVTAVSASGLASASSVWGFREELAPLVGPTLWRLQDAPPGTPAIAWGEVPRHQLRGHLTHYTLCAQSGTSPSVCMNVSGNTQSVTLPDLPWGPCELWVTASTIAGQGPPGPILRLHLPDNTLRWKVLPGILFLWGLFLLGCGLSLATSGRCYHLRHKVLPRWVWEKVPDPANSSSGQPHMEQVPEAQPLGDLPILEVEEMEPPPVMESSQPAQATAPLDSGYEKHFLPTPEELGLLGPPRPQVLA

For assay [2], the target named is T2, methionyl-tRNA synthetase 1 (human, UniProt P56192 1-900).
T2 construct: HuProt array protein, full-length recombinant from yeast; also called MARS
T2 sequence: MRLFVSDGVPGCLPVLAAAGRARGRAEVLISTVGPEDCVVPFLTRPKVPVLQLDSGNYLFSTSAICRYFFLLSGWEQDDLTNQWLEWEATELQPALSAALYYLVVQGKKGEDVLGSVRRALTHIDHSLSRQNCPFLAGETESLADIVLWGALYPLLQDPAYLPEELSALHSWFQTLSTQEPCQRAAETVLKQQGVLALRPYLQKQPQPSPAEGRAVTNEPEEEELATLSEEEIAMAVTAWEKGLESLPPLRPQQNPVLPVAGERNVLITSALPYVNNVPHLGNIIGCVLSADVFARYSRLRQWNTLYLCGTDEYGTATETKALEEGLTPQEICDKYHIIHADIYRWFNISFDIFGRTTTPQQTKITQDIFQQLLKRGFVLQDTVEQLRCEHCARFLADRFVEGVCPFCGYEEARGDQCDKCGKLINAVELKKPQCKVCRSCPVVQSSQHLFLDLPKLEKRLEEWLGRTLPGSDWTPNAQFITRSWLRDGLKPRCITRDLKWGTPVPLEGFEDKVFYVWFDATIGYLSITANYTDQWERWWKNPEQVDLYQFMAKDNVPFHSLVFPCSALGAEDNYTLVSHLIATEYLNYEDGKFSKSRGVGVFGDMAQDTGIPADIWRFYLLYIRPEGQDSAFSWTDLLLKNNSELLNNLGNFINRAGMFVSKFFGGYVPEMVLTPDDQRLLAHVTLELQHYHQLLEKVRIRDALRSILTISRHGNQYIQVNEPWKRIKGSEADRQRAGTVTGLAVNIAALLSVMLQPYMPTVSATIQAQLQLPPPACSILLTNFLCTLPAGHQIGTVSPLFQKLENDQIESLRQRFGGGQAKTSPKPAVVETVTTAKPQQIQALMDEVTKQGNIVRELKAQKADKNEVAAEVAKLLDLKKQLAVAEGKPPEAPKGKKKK

In assay [3] the target is T3, rhophilin associated tail protein 1 like, transcript variant 2 (human, UniProt Q96C74 1-230).
T3 construct: HuProt array protein, full-length recombinant from yeast; also called ROPN1L
T3 sequence: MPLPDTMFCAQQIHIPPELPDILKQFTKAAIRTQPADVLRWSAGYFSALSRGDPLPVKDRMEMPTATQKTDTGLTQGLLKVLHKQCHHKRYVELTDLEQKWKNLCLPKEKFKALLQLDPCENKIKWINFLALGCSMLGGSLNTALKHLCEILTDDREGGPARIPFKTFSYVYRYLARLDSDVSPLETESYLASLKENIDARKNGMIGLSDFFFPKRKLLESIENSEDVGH

Assay [4] concerns the target T4, Dpy-30 histone methyltransferase complex regulatory subunit (human, UniProt Q9C005 1-99).
T4 construct: HuProt array protein, full-length recombinant from yeast

Assay [5] addresses T5, serpin family B member 6, transcript variant 2 (human, UniProt P35237 1-376).
T5 construct: HuProt array protein, full-length recombinant from yeast; also called SERPINB6
T5 sequence: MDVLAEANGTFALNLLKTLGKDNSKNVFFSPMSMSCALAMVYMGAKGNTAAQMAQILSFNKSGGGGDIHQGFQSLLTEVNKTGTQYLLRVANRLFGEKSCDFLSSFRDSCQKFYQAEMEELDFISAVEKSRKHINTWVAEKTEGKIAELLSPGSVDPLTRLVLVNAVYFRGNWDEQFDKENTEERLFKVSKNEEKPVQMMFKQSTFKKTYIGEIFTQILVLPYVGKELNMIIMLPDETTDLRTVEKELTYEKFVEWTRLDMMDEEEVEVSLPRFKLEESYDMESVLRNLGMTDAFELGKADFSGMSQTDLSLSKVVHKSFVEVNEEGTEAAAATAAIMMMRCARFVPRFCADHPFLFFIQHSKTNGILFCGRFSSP

The target in a further assay is T6, BTB domain containing 8 (human, UniProt Q5XKL5 1-374, limits assumed).
T6 construct: HuProt array protein, full-length recombinant from yeast; also called BTBD8
T6 sequence (Q5XKL5 other isoform, or with tags, fused parts or gaps limits assumed): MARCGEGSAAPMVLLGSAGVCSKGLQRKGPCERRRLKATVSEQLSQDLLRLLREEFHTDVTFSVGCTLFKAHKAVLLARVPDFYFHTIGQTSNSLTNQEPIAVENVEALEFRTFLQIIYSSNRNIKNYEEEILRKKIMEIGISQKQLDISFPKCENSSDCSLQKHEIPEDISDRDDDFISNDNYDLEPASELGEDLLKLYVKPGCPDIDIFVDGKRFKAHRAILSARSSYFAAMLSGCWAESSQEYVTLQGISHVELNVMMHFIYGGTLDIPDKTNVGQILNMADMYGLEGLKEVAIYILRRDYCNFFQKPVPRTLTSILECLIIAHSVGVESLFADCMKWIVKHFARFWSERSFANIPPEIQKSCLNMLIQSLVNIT

Assay [6] has as its target T7, Jupiter microtubule associated homolog 2 (human, UniProt Q9H910 1-190).
T7 construct: HuProt array protein, full-length recombinant from yeast; also called HN1L
T7 sequence: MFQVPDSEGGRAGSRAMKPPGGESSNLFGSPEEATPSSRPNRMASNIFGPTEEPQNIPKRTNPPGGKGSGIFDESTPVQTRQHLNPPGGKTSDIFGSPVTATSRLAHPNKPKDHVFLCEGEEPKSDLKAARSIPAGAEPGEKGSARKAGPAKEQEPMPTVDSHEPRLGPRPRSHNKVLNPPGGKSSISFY

The next assay concerns the target T8, Deoxyhypusine synthase (human, UniProt P49366 1-369).
T8 construct: also called DHPS
T8 sequence: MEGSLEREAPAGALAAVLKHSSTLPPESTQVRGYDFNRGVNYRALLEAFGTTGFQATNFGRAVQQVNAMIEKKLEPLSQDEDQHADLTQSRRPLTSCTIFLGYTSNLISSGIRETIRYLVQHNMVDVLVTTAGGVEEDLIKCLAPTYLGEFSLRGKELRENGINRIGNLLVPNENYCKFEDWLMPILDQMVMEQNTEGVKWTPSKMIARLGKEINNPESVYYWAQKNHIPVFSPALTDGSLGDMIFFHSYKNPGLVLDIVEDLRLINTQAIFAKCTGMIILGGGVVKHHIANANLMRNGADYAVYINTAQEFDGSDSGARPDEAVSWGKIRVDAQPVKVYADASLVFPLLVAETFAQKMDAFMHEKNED

Assay [7] addresses T9, microtubule associated protein RP/EB family member 2, transcript variant 1 (human, UniProt Q15555 1-327).
T9 construct: also called MAPRE2

T4 sequence (Q9C005 whole entry, one chain of several): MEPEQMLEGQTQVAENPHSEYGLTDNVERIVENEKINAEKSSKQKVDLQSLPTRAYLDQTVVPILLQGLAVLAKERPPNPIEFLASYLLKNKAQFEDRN
T9 sequence (Q15555 whole entry, change not shown): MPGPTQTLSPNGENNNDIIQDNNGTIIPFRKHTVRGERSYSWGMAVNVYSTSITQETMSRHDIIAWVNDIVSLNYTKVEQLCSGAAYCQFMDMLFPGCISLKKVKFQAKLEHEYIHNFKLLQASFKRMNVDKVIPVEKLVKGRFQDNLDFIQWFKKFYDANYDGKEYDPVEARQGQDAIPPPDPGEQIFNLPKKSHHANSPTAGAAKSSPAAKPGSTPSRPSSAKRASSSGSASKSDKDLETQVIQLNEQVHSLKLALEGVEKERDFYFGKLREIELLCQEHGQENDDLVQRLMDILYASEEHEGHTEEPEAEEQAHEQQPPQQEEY

B1: TOVA1002 (antibody, V domains shown)
VH: QVQLVESGGGVVQPGRSLRLSCAASGFTFSNFAMHWVRQAPGKGLEWVVVISSDGSNKNYADSVKGRFTISRDNSKNTLYLQMNSLRAEDTAVYYCARDLGVGSTTYWGQGTLVTVSS
VL: SYVLTQPPSVSVAPGQTARITCGGNNIGSKSVHWYQQKPGQAPVLVVYDDSDRPSGIPERFSGSNSGNTATLTISRVEAGDEADYYCQVWDGYSDPLVFGGGTKLTVLG
As to B1, in assay [1], the binding result is “binds”.

B2: TMEL1038 (antibody, V domains shown)
VH: QVQLVQSGAEVKKPGASVKVSCQASGYTFTGYYIHWVRQAPGQGLEWMGWINPNSGGTNYAQKFQGRVTMTRDTSISTAHMELGRLRSDDTAVYYCATPPSRYGGNYYADYWGQGTLVTVSS
VL: ASALTQPASVSGSPGQSITISCTGTSSDVGGYNYVSWYQQHPGKAPQLMIFDVSNRPSGVSNRFSGSKSGDTASLTISGLQAEDEADYYCSSYTSSSTWVFGGGTKLTVLG
notes: detected with anti-human IgG Fc
For the molecule B2, in assay [2], the binding result is on record as “binds”.

B3: TMEL1041 (antibody, V domains shown)
VH: EVQLLESGGGLVQPGGSLRLSCAASGFTFRIYAMSWVRQAPGKGLEWVSAISYSGNTTYYADSVKGRFTISRDNSKNTLYLQINNLRAEDTAIYYCAIQEKRELQLRRELDNYWGQGTLVTVSS
VL: PYELTQPPSVSLSPGQTARITCSGDALPKKYAYWYQQKSGQAPVLVIYEDSKRPSGIPERFSGSSSGTTATLTISGAQVDDEGDYYCYSPDSSGNVWVFGGGTKLTVLG
notes: as for B2
Turning to B3, the binding result in assay [3] and in assay [4] was “binds” in each case.

B4: TMEL1040 (antibody, V domains shown)
VH: EVQLVQSGAEVKKPGESLKISCKGSGYSFTTYWIAWVRQMPGKGLEWMGIIYPADSDTRYSPSFQGQVTMSADQSINTAYLQWSSLKASDTAMYYCARRGREFDYWGQGTLLTVSS
VL: QSALTQPASVSGSPGQSITISCTGTSSDVGSYNLVSWYQQHPGKAPKLMIYEGSKRPSGVSNRFSGSKSGNTASLTISGLQAEDEADYYCCSYAGSSTPWVFGGGTKLTVL
notes: as for B2
In the case of B4, the binding result in assay [5] is “binds”.

B5: TMES1002 (antibody, V domains shown)
VH: QVQVVESGGGLVKPGGSLRLSCAVSGLDFRDYYVNWIRQAPGKGLEWLSYITSPGGHTSYSDSVKGRFTISRDNAKNSVYLQMDSLTVEDTAVYFCAIKEGYGLSDWGQGTLVTVSS
VL: EIVLTQSPVTLSLSPGERATLSCRASQSVSSSYIAWYQQKPGQAPRLLIYGASTRATGIPDRFSGSGSGTDFTLTISRLEPEDCAVFYCQQYGSSHYTFGQGTKLEIKR
notes: as for B2
Turning to B5, the binding result (in the assay with BTB domain containing 8; in [6]) was “binds” each time.

B6: TOVA1003 (antibody)
VH: GEQLLESGGGLVQPGGSLRLSCAASGFTFSHYAMTWVRQAPGKGLEWVSGVSGSGFTTYYADSVKGRFTISRDNAQNTLYLHMNSLRAEDTAIYYCVKDLEVSIGHNFDFWGQGTLVTVSSASTKGPSVFPLAPSSKSTSGGTAALGCLVKDYFPEPVTVSWNSGALTSGVHTFPAVLQSSGLYSLSSVVTVPSSSLGTQTYICNVNHKPSNTKVDKRV
VL: EVQMTQSPSSLSASVGDRVTITCRASQHIAGRLNWYQQKPGKAPKLLIHSASSVQREVPSRFGGSGFGTDFTLTIYSLQAEDFATYFCQQSYYTPPTFAGGTRVDLKRTVAAPSVFIFPPSDEQLKSGTASVVCLLNNFYPREAKVQWKVDNALQSGNSQESVTEQDSKDSTYSLSSTLTLSKADYEKHKVYACEVTHQGLSSPVTKSFNRGEC
For B6, the binding result with Deoxyhypusine synthase is reported as “binds”.

B7: TMES1004 (antibody, V domains shown)
VH: QVQLVQSGAEVKKPGASVKISCKASGYTFTSHAIHWVRQAPGQTFEWLGWINPVNGVTKYSQTFQDRVTIVRDKSATTTYMDLSGLTFEDTAMYYCARVLDFYGSSVLDYWGQGTLVTVSS
VL: QSALTQPASVSGSPGQSITISCTGTSSDIGTYNLVSWYQQRPGKAPKLIIYDVIKRPSGISDRFSGSKSDNMASLTISGLQAEDEAHYYCCSYRSSTAPVVFGGGTKVTVL
For the molecule B7, the binding result in assay [7] is “binds”.

The record behind these values is patent US20220204643A1 (published 2022).
